In PMC4357707 (Nucleic Acids Research, 2015):

Legend:
[1] = target: T1, HEN1-KK69-70AA (Arabidopsis thaliana, UniProt Q9C5Q8 1-942, K69A;K70A); assay: EMSA
T1 sequence: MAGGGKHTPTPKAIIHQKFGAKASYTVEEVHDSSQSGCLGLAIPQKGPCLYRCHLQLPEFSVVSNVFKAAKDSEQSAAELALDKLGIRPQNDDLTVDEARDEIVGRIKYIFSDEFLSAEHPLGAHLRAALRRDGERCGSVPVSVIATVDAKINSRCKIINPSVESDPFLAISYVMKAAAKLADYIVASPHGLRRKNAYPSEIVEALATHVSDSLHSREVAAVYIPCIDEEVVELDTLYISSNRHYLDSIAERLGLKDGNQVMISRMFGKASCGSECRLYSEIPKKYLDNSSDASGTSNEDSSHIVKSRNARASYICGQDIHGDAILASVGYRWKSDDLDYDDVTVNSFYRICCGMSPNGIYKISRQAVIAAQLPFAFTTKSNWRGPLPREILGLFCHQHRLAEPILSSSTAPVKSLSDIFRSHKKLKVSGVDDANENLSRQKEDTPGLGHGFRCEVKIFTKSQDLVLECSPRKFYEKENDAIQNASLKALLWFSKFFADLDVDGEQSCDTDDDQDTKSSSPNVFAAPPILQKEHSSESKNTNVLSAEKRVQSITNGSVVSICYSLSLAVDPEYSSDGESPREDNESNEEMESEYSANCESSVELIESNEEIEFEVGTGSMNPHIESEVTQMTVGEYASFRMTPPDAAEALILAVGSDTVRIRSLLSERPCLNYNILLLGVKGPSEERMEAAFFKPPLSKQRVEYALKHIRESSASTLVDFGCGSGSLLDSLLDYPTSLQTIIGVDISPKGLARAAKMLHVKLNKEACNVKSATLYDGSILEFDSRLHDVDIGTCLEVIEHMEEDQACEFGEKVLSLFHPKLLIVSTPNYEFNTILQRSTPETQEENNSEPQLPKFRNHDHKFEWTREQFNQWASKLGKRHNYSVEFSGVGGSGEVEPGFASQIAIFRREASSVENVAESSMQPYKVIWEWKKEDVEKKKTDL

[2] = target: T2, HEN1-KKKK68-71SAAS (Arabidopsis thaliana, UniProt Q9C5Q8 1-942, K68S;K69A;K70A;K71S); assay: EMSA
T2 sequence: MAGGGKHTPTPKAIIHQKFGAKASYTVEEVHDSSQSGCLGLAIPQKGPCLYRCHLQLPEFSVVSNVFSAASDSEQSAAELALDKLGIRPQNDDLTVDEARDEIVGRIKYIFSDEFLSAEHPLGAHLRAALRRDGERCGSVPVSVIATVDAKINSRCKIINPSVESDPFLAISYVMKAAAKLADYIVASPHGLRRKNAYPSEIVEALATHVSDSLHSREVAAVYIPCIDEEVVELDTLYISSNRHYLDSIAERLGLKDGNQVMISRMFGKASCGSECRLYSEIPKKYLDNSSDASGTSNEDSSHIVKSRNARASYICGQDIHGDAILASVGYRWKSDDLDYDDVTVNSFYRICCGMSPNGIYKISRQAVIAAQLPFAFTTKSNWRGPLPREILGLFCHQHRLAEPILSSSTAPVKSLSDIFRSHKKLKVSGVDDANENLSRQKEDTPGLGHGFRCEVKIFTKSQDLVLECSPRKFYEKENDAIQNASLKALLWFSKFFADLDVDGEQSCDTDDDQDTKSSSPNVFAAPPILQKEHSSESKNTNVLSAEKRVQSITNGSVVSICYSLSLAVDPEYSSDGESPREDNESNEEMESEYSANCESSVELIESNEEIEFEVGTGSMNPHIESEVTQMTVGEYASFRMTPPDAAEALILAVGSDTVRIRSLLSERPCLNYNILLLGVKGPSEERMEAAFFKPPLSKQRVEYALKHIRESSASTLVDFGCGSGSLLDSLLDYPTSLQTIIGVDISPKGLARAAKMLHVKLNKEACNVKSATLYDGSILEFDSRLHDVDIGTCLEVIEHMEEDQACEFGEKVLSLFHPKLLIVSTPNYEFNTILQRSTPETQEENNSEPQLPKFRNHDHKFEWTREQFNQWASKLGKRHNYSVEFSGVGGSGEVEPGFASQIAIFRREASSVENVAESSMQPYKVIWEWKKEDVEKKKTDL

B1: miR173/miR173* (dsRNA)
RNA 1: UUCGCUUGCAGAGAGAAAUCAC
RNA 2: GAUUCUCUGUGUAAGCGAAAG
Q: Does B1 bind [1]?
A: no binding

Q: Does B1 bind [2]?
A: no binding
